Experimental data from the supplement of paper PMC10065799, “High-throughput profiling of sequence recognition by tyrosine kinases and SH2 domains using bacterial peptide display” (eLife, 2023).

Experiments:
FGFR1 = FGFR1 (UniProt P11362); assay: phosphorylation enrichment, bacterial display (enrichment ratio); higher = better substrate or ligand; peptides without Tyr show the background
Fyn = Fyn (UniProt P06241); assay: as above
FGFR3 = FGFR3 (UniProt P22607); assay: as above
EPHB2 = EPHB2 (UniProt P29323); assay: as above
c-Src = assay: as above
c-Abl (mouse) = assay: as above
Fer (mouse) = assay: as above
AncSZ = assay: as above
MERTK = MERTK (UniProt Q12866); assay: as above
Hck = Hck (UniProt P08631); assay: as above
Jak2 = Jak2 (UniProt O60674); assay: as above
Fes = Fes (UniProt P07332); assay: as above
EPHB1 = EPHB1 (UniProt P54762); assay: as above
Grb2 SH2 = Grb2 SH2 (UniProt P62993); assay: SH2 binding enrichment of the phosphorylated peptide, bacterial display (enrichment ratio); higher = better substrate or ligand; peptides without Tyr show the background
SHP2-C SH2 = assay: as above
c-Src SH2 = assay: as above
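Wherever SH2 binding enrichment of the phosphorylated peptide, bacterial display is given: peptide library displayed on the E. coli surface as eCPX fusions, selected cells deep-sequenced, score is each peptide's frequency after selection divided by its frequency in the input.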
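Wherever phosphorylation enrichment, bacterial display is given: 11-residue human phosphosite peptides and single-mutation variants displayed on the E. coli surface, counted by deep sequencing, each peptide's frequency after selection divided by its frequency in the unselected input library; frequency after pTyr selection over input frequency; kinase dosed for 20-30% of maximal phosphorylation in three min.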

Chain of Hck (P08631 whole entry, looked up): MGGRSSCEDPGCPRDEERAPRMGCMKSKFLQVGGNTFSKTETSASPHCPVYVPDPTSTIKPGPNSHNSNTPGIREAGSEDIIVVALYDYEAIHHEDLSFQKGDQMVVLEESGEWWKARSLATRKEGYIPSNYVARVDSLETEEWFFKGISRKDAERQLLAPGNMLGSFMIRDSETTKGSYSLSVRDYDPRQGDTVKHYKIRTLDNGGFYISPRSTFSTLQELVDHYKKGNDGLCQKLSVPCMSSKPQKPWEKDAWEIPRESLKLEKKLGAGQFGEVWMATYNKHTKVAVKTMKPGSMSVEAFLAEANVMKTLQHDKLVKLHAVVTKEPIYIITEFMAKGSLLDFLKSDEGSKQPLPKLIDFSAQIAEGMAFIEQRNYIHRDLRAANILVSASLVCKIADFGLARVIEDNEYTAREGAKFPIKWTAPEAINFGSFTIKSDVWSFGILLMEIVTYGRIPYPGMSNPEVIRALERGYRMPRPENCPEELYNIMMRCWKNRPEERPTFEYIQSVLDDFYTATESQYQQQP
Chain of FGFR1 (P11362 whole entry, looked up): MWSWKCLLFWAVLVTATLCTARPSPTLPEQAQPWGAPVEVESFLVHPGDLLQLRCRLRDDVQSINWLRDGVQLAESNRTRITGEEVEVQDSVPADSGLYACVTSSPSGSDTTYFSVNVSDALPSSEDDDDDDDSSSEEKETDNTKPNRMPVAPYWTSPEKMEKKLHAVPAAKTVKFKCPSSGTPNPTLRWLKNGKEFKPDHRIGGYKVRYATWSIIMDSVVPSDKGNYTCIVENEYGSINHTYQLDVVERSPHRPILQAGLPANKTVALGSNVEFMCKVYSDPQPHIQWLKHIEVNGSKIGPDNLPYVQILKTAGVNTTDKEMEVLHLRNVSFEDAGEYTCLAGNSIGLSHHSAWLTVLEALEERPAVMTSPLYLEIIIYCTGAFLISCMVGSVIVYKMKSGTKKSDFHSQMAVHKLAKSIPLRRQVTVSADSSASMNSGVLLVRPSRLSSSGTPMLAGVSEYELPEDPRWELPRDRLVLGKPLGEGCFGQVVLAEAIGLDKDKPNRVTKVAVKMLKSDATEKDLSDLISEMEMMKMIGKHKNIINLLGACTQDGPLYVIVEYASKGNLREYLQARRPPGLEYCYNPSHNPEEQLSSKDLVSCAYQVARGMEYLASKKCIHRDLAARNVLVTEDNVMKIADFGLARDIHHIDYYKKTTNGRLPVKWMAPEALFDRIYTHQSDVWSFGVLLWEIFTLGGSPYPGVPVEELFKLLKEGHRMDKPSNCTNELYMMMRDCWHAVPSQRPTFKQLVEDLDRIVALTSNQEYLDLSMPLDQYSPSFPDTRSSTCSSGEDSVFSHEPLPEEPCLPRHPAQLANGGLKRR
Chain of EPHB2 (P29323 whole entry, looked up): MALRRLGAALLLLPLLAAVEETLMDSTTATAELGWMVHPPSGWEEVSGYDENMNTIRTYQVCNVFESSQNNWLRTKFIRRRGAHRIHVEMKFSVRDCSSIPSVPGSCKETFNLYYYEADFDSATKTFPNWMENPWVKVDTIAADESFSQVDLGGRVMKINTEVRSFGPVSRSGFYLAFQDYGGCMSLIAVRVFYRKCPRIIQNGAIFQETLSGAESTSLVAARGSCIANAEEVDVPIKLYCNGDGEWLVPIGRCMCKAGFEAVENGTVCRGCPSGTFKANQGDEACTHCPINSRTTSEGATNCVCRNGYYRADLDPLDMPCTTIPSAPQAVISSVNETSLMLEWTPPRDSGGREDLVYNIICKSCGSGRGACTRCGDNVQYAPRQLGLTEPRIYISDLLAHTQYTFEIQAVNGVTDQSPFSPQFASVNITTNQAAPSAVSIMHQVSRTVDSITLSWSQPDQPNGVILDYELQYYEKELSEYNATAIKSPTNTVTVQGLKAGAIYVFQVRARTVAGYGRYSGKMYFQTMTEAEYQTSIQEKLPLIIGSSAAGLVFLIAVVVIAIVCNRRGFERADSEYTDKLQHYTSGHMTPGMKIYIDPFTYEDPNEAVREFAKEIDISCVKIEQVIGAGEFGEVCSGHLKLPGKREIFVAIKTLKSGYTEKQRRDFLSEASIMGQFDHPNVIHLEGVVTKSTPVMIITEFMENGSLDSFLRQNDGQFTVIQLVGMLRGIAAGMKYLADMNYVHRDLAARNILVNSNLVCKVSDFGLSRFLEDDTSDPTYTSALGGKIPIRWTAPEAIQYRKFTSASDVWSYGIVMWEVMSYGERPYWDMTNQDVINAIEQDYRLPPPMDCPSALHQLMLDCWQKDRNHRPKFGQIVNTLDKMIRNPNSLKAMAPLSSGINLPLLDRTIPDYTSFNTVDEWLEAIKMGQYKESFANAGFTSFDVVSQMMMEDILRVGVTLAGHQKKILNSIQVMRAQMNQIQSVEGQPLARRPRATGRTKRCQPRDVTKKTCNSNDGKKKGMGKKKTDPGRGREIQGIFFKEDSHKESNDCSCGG
Chain of Fyn (P06241 whole entry, looked up): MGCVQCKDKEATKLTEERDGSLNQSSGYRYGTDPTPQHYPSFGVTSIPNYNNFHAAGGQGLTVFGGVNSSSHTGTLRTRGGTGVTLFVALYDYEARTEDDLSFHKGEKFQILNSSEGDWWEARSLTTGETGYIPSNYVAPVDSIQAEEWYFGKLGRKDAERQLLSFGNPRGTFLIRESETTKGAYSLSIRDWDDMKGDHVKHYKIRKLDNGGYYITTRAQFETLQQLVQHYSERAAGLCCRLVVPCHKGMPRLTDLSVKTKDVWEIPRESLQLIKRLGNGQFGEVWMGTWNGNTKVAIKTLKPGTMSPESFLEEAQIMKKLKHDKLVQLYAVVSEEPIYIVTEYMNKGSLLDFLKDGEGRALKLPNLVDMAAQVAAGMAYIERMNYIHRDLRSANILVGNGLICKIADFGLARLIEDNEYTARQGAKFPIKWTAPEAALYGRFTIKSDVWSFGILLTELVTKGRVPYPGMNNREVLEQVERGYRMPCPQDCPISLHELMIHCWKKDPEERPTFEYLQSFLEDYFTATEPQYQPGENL
Chain of FGFR3 (P22607 whole entry, looked up): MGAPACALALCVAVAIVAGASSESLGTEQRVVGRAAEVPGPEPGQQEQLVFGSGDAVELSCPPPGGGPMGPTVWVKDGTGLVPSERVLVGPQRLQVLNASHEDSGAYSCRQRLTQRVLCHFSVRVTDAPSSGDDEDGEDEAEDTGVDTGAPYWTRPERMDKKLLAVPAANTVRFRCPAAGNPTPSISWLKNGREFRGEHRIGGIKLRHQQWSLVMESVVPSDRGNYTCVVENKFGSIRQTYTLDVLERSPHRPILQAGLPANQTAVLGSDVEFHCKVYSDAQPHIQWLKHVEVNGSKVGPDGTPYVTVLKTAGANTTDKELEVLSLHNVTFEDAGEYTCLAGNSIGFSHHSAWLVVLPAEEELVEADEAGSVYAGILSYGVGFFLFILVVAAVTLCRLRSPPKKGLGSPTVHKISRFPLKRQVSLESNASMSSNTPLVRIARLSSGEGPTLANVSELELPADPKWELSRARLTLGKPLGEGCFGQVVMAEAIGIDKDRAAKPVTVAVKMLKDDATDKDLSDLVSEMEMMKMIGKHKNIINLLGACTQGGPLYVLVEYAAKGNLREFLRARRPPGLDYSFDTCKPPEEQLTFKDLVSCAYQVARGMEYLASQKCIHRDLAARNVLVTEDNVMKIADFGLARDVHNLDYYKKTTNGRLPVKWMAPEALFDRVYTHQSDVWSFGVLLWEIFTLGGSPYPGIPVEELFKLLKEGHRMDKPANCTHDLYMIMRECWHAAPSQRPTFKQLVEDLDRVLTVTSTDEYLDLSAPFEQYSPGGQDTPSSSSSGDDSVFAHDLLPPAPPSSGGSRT
Chain of MERTK (Q12866 whole entry, looked up): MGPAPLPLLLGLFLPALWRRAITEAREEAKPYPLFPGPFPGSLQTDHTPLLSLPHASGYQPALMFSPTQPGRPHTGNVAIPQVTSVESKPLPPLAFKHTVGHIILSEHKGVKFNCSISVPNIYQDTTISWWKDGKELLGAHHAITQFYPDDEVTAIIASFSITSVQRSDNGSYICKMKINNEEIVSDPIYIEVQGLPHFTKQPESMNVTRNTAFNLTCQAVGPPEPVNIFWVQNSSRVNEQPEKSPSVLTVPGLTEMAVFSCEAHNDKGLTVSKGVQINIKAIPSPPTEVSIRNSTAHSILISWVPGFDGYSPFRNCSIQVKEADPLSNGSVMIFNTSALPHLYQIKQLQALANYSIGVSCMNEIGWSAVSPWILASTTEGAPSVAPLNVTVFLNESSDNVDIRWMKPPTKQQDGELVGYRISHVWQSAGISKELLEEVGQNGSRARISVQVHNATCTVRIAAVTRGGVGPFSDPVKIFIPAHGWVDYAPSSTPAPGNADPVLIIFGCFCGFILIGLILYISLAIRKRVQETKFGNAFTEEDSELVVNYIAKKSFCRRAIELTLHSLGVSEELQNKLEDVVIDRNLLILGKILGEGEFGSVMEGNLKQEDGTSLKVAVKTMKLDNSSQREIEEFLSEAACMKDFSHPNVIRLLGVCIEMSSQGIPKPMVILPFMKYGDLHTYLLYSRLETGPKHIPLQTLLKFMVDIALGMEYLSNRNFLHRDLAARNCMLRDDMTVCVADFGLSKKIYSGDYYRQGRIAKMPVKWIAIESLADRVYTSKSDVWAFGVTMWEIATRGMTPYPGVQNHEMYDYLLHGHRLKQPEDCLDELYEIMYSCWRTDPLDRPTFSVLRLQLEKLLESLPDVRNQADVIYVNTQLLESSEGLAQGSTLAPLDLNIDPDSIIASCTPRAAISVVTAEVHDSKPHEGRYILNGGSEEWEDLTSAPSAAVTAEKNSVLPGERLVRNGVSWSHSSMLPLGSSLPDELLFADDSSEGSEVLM

Sequence	SH2 binding enrichment (Grb2 SH2)	SH2 binding enrichment (SHP2-C SH2)	SH2 binding enrichment (c-Src SH2)	phosphorylation enrichment (FGFR1)	phosphorylation enrichment (Fyn)	phosphorylation enrichment (FGFR3)	phosphorylation enrichment (EPHB2)	phosphorylation enrichment (c-Src)	phosphorylation enrichment (c-Abl (mouse))	phosphorylation enrichment (Fer (mouse))	phosphorylation enrichment (AncSZ)	phosphorylation enrichment (MERTK)	phosphorylation enrichment (Hck)	phosphorylation enrichment (Jak2)	phosphorylation enrichment (Fes)	phosphorylation enrichment (EPHB1)
YGSGNYNDFGN [HNRNPA2B1_Y300]	0.94	0.629	0.68	0.719	0.668	0.654	1.01	0.643	0.923	0.424	1.03	0.501	0.632	0.966	1.08	3
YHIDHYLGKEM [G6PD_Y202_R198H]	1.09	0.664	0.573	0.673	0.482	0.667	0.505	0.546	0.58	0.478	0.599	0.438	0.474	0.476	0.674	0.437
YISLIYTNYEV [GSTP1_Y109_A114V]	1.18	1.5	1.16	4.89	4.07	4.26	1.83	4.53	2.16	5.32	1.82	3.93	2.59	1.54	1.55	2
YLGRDYLETLM [DUS3L_Y610]	0.748	0.803	0.563	2.74	0.514	2.29	0.544	0.538	0.898	0.637	0.937	0.524	0.829	1.06	1.03	0.617
YNNYGYGSDGF [HNRNPH3_Y161_N163S]	1.49	0.658	0.969	0.673	0.507	0.683	5.3	0.505	0.55	0.458	0.735	0.652	0.521	0.631	0.784	2.96
YSKTQYNQVPS [CXADR_Y318]	0.748	0.714	0.767	0.393	0.461	0.429	0.318	0.387	0.729	0.386	0.473	0.467	0.343	0.502	0.522	0.351
YSTSPYLLEAA [BRIP1_Y921]	0.657	1.15	0.629	0.551	4.67	0.604	0.518	2.21	0.959	0.53	0.887	1.38	1.08	0.694	0.931	0.544
YTFNSYYMHWV [IGHV1-46_Y51_T49N]	1.12	0.951	0.839	6.62	1.54	5.38	4.46	2.06	1.1	5.35	1.77	6.9	2.52	6.39	1.6	4.7
YVSSFYHAFSG [ACTN4_Y265]	1.2	1.79	2.2	3.31	2.76	2.32	1.41	3.68	1.28	0.564	1.04	8.9	2.82	0.895	0.884	2.21
YYSSEYHYVGG [CTSC_Y345]	0.929	1.13	1.98	17.4	5	16.1	17.6	4.92	12.8	4.51	6.21	12.1	6.11	7.76	0.945	15.5

The next lines start with results.

SH2 binding enrichment (Grb2 SH2)	SH2 binding enrichment (SHP2-C SH2)	SH2 binding enrichment (c-Src SH2)	Sequence	phosphorylation enrichment (FGFR1)	phosphorylation enrichment (Fyn)	phosphorylation enrichment (FGFR3)	phosphorylation enrichment (EPHB2)	phosphorylation enrichment (c-Src)	phosphorylation enrichment (c-Abl (mouse))	phosphorylation enrichment (Fer (mouse))	phosphorylation enrichment (AncSZ)	phosphorylation enrichment (MERTK)	phosphorylation enrichment (Hck)	phosphorylation enrichment (Jak2)	phosphorylation enrichment (Fes)	phosphorylation enrichment (EPHB1)
0.762	0.685	0.392	YIATQYSLRPR [LBR_Y166]	0.551	0.558	0.527	0.493	0.659	0.72	0.439	0.932	0.731	0.568	0.779	0.773	0.511
0.906	0.792	0.937	YKRAVYCIIGR [NUP93_Y391]	0.429	0.59	0.563	0.464	0.626	0.563	0.505	0.746	0.849	0.755	0.599	0.785	0.506
0.747	0.986	1.39	YLAAIYPTVGQ [NF1_Y2508_T2507I]	1.16	0.513	0.88	0.514	0.528	0.597	0.58	0.94	1.37	0.57	0.671	0.89	0.511
0.9	0.604	0.523	YLEKYYKFGSR [NNMT_Y25]	0.524	0.501	0.553	0.48	0.654	0.59	0.508	0.69	0.407	0.473	0.604	0.779	0.453
0.904	0.821	0.908	YLENYYDLKKD [MMP3_Y42]	9.43	3.76	7.09	3.03	2.31	0.957	0.759	1.83	1.81	3.17	1.61	1.27	6.01
1.94	2.83	1.44	YMLYQYLKQIE [RPAP3_Y569_D564Y]	6.02	1.56	4.47	10.5	2.25	1.6	6.78	1.53	8.62	5.99	1.85	1.11	13.3
0.684	0.442	0.418	YQASYYRRGDR [LTK_Y677_R673Q]	0.411	0.492	0.526	0.399	0.527	0.641	0.403	0.685	0.523	0.57	0.635	0.713	0.453
0.808	0.6	0.495	YQKDVYNIPPS [NEDD9_Y177_D178N]	0.623	4.4	0.529	0.532	3.29	0.584	0.472	0.81	1.64	2.34	0.805	0.702	0.456
0.793	0.597	0.374	YSKDNYKRVTG [PANK2_Y405]	0.456	0.387	0.4	0.44	0.44	0.52	0.494	0.675	0.488	0.344	0.6	0.611	0.362
0.7	0.619	0.56	YSQNICIQNRN [PKP2_Y631_Y631C]	0.524	0.415	0.641	0.503	0.432	0.663	0.498	0.874	0.49	0.501	0.777	1.01	0.529
